Test results as given in patent publication US20200369755A1 (PROTHENA BIOSCIENCES, published 2020).
Where no end group is shown, it is not given here.

What was measured:
Assay in all cases: peptide ELISA, biotinylated peptide on streptavidin plate; background-subtracted absorbance; positive from 0.2
307-321 = molecular target: T1, 307-321 (also: biotinylated, site not given here)
T1 construct: also called tau peptide 307-321 (4R0N numbering)
T1 peptide: GGGNKKIETHKLTFR
Protocol: (§1) Additional peptides were used to model potential post-translational modifications of the C- and N-terminal ends of the protein.
(§2) Biotinylated peptides were bound to separate wells of a streptavidin-coated ELISA plate. The plate was blocked and treated with murine 3D6, followed by incubation with a horseradish peroxidase-conjugated anti-mouse antibody. After thorough washing, OPD was applied to the plate and allowed to develop. The plate was read at 450 nm absorbance. Background subtraction was performed with absorbance values from wells containing no primary antibody, and a threshold for positive binding was set to 0.2 absorbance units. […] (FIG. 1)

1-15* (acetylated) = molecular target: T2, 1-15* (acetylated) (also: biotinylated (site not given here))
T2 construct: also called tau peptide 1-15 (4R0N numbering), acetylated
T2 peptide: Ac-MAEPRQEFEVMEDHA
Protocol: as §1, §2

217-231 = molecular target: T3, 217-231 (also: biotinylated, site not given here)
T3 construct: also called tau peptide 217-231 (4R0N numbering)
T3 peptide: VQIINKKLDLSNVQS
Protocol: as §1, §2

64-78 = molecular target: T4, 64-78 (also: biotinylated, site not given here)
T4 construct: also called tau peptide 64-78 (4R0N numbering)
T4 peptide: VTQARMVSKSKDGTG
Protocol: as §1, §2

271-285 = molecular target: T5, 271-285 (also: biotinylated, site not given here)
T5 peptide: HHKPGGGQVEVKSEK
Protocol: as §1, §2

289-303 = molecular target: T6, 289-303 (also: biotinylated, site not given here)
T6 construct: also called tau peptide 289-303 (4R0N numbering)
T6 peptide: KDRVQSKIGSLDNIT
Protocol: as §1, §2

55-69 = molecular target: T7, 55-69 (also: biotinylated, site not given here)
T7 construct: also called tau peptide 55-69 (4R0N numbering)
T7 peptide: SLEDEAAGHVTQARM
Protocol: as §1, §2

46-60 = molecular target: T8, 46-60 (also: biotinylated, site not given here)
T8 construct: also called tau peptide 46-60 (4R0N numbering)
T8 peptide: EEAGIGDTPSLEDEA
Protocol: as §1, §2

91-105 = molecular target: T9, 91-105 (also: biotinylated, site not given here)
T9 construct: also called tau peptide 91-105 (4R0N numbering)
T9 peptide: TKIATPRGAAPPGQK
Protocol: as §1, §2

10-24 = molecular target: T10, 10-24 (also: biotinylated (site not given here))
T10 construct: also called tau peptide 10-24 (4R0N numbering)
T10 peptide: VMEDHAGTYGLGDRK
Protocol: as §1, §2

343-357 = molecular target: T11, 343-357 (also: biotinylated, site not given here)
T11 construct: also called tau peptide 343-357 (4R0N numbering)
T11 peptide: GDTSPRHLSNVSSTG
Protocol: as §1, §2

19-33 = molecular target: T12, 19-33 (also: biotinylated, site not given here)
T12 construct: also called tau peptide 19-33 (4R0N numbering)
T12 peptide: GLGDRKDQGGYTMHQ
Protocol: as §1, §2

154-168 = molecular target: T13, 154-168 (biotinylated)
T13 construct: also called tau peptide 154-168 (4R0N numbering)
Protocol: as §1, §2

145-159 = molecular target: T14, 145-159 (also: biotinylated, site not given here)
T14 peptide: PGTPGSRSRTPSLPT
Protocol: as §1, §2

253-267 = molecular target: T15, 253-267 (also: biotinylated, site not given here)
T15 construct: also called tau peptide 253-267 (4R0N numbering)
T15 peptide: KPVDLSKVTSKCGSL
Protocol: as §1, §2

352-366 = molecular target: T16, 352-366 (also: biotinylated, site not given here)
T16 construct: also called tau peptide 352-366 (4R0N numbering)
T16 peptide: NVSSTGSIDMVDSPQ
Protocol: as §1, §2

37-51 = molecular target: T17, 37-51 (also: biotinylated, site not given here)
T17 construct: also called tau peptide 37-51 (4R0N numbering)
T17 peptide: GDTDAGLKAEEAGIG
Protocol: as §1, §2

[1] = molecular target: T18, 369-383 (amidated C-term) (also: biotinylated, site not given here)
T18 peptide: TLADEVSASLAKQGL-NH2
Protocol: as §1, §2

235-249 = molecular target: T19, 235-249 (also: biotinylated, site not given here)
T19 construct: also called tau peptide 235-249 (4R0N numbering)
T19 peptide: SKDNIKHVPGGGSVQ
Protocol: as §1, §2

Measured: binding result

B1: murine 3D6 monoclonal antibody (antibody, IgG1, V domains shown)
VH: EVQLQQSGADLVRPGALVKLSCKASGFNIKDYYLHWVRQRPEQGLEWIGWIDPENGDTVYDPKFQGKATITADTSSNTAYLQLGSLTSEDTAVYFCSTLDFWGQGTTLTVSS
VL: not shown
notes: Hybridoma-derived mouse antibody; also called m3D6; mouse 3D6
no binding: all assays above
